In paper PMC5712427:

Target: Full length human APOBEC3G (human) (UniProt Q9HC16)
Assay: time-lapse high-speed AFM

stoichiometry N: 2
Substance: Full length human APOBEC3G (from UniProt Q9HC16 1-384) (enzyme)
